*1 amine or outer side, *2 acyl side, *3 side chain or, on linkers, in order; H or OH if unused. Bridges are numbered along the chain shown (N, C = ends). Where no end group is shown, it is not given here. TBMB = c1c(C[*:1])cc(C[*:3])cc1C[*:2]
Assays:
human IL-17A dimer [1] = target: T1, human IL-17A dimer (human, UniProt Q16552 24-155); assay: FP competition, competitor: tracer BCY2311
T1 construct: also called hIL17-A
T1 sequence (looked up): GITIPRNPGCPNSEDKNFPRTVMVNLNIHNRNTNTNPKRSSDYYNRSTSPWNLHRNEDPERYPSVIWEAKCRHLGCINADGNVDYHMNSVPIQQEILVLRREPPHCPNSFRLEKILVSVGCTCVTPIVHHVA
Method: (§1) Affinity determination by fluorescence polarization (FP) competition. […] Peptides were diluted to an appropriate concentration in assay buffer (PBS+0.01% Tween20, adjusted to pH7.4 using NaOH (1M)) with a maximum of 1% DMSO, then serially diluted 1 in 2 into assay buffer. […] The PHERAstar FS was set at 25° C. with 200 flashes per well and a positioning delay of 0.1 second, with each well measured at 5 to 10 minute intervals for 60 minutes. […] Data analysis was performed in Dotmatics where mP values were fit to the Cheng Prusoff equation in order to generate a Ki value.

human IL-17A dimer [2] = target: T1, human IL-17A dimer; assay: FP competition, competitor: tracer BCY2311; Ki Mean column, n=6
Method: as §1

human IL-17A dimer [3] = target: T1, human IL-17A dimer; assay: FP competition, competitor: tracer BCY2315
Method: as §1

human IL-17A dimer [4] = target: T1, human IL-17A dimer; assay: FP competition, competitor: tracer BCY2315; Ki Mean column, n=2
Method: as §1

human IL-17E = target: T2, human IL-17E (human, UniProt Q9H293 33-177); assay: binding assay, method analogous to WO 2011/141823; column head prints hIL17-F, read as IL-17E by paragraph 30
T2 construct: also called hIL17-E; IL-25
T2 sequence (looked up): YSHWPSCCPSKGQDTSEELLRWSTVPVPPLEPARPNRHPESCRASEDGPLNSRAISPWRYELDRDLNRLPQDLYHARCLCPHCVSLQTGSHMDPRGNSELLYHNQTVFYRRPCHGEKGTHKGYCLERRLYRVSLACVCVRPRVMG

human IL-17A dimer [5] = target: T1, human IL-17A dimer; assay: binding assay, method analogous to WO 2011/141823
mouse IL-17A dimer = target: T3, mouse IL-17A dimer (mouse, UniProt Q62386 26-158); assay: binding assay, method analogous to WO 2011/141823
T3 sequence (looked up): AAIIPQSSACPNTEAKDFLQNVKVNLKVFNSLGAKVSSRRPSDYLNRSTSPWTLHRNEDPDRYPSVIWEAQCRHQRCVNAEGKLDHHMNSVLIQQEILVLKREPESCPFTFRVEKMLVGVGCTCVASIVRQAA

human IL-17A dimer [6] = target: T1, human IL-17A dimer; assay: binding assay, method analogous to WO 2011/141823; Mean column, n=2
human IL-17A dimer [7] = target: T1, human IL-17A dimer; assay: binding assay, method analogous to WO 2011/141823; remark: listed apart in the source

B1: BCY2240 [Ac-(SEQ ID NO: 36)] (peptide)
peptide: Ac-CYEAELCAFLGLC
modifications: linker 1-7-13 via TBMB
notes: Bicyclic peptide
Human IL-17A dimer [1]
  Ki: 26.9 nM
Human IL-17A dimer [2]
  Ki: 25.7 nM

B2: BCY2249 (peptide)
peptide: CYEDELCEFLALC
modifications: linker 1-7-13 via TBMB
notes: Bicyclic peptide
Human IL-17A dimer [3]
  Ki: 65 nM
Human IL-17A dimer [4]
  Ki: 65 nM

B3: BCY2240 [A-(SEQ ID NO: 56)-A] (peptide)
peptide: ACGYDYYCALYDICA
modifications: linker 2-8-14 via TBMB
notes: Bicyclic peptide
Human IL-17E
  Kd: 198 nM

B4: BCY2310 (peptide)
peptide: ACPQDLELCTFLFGDCAXXXXXXK
modifications: Ci, Cii and Ciii cyclised with TBMB; six sarcosines (written X) after the C-terminal Ala; fluorescein (Fl) on the C-terminal Lys
Human IL-17A dimer [5]
  Kd: 26.6 nM
Mouse IL-17A dimer
  Kd: 110 nM
Human IL-17A dimer [6]
  Kd: 26.6 nM

B5: BCY2232 (peptide)
peptide: CPENELYCFLSSQQC
modifications: linker 1-8-15 via TBMB
notes: Bicyclic peptide
Human IL-17A dimer [7]
  Kd: 398 nM
